Data on 32 sequences can be found in the supplement of paper PMC9170038.

For this data set, the system named is MS2 coat protein. As to the kind of experiment: apparent KD of MS2 coat protein; designed switch direction (-1 OFF switch, 1 ON switch): -1; higher = weaker reporter binding. In short, it runs like this:
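Designed RNA switches with common flanks were made on Illumina chips by stalled E. coli RNA polymerase. Titration with SNAP-549-labelled MS2 coat protein doubled from 0.7 or 1.5 nM up to 3 µM. Apparent KD is each design's median over clusters after curve-fitting normalised fluorescence.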

[1] abbreviates: input ligand: microRNA oligo, concentration not stated.
Where [2] appears, read: Eterna round: R95, input ligand: microRNA oligo, concentration not stated.

As for “UUAAAUCAUGUAGGAUAUGCGUGGCGAAGCUAUGCAGAAGGACAUGAGGAUCACCCAUGUUCUAGCGUCUGCGUACAGAUGCAA [JL ENG1 1.10] (Eterna round: R96, puzzle: Exclusion NG 1)”, the “apparent KD of MS2 coat protein” value by setting is: (input ligand: FMN 200 uM) 93.1 nM; under setting [1], 17.5 nM; (input ligand: none) 17.5 nM.

In the case of “UUAAAUCAUGUAGGAUAUGCGUUGCGAAGCGAUGCAGAAGGACAUGAGGAUCACCCAUGUGCUAGCGUCCGCGUACGGAUGCAA [Mat - Exclusion NG 1 - Mod of JL - D60] (Eterna round: R96, puzzle: Exclusion NG 1)”, the “apparent KD of MS2 coat protein” value reads like this: (input ligand: FMN 200 uM) 172 nM; under setting [1], 65.3 nM; (input ligand: none) 52 nM.

As to “UUAAAUCAUGUAGGAUAUGCUUUGCGAAGCGAGGCAGAAGGACAUGAGGAUCACCCAUGUGCUAGCGUCCGAGUACGGAUGCAA [Mat - Exclusion NG 1 - Mod of JL - D62] (Eterna round: R96, puzzle: Exclusion NG 1)”, the “apparent KD of MS2 coat protein” value (input ligand: FMN 200 uM) is 214 nM, the “apparent KD of MS2 coat protein” value under setting [1] was 62.6 nM and the “apparent KD of MS2 coat protein” value (input ligand: none) was found to be 83.3 nM.

With “UUAAUACAUGUAGGAUAUGCGUGGCGAAGCUAUGCAGAAGGACAUGAGGAUCACCCAUGUCUAUGCGUCCGCGUACGGAUGCAA [JL Eng1 1.21 mod 6] (Eterna round: R96, puzzle: Exclusion NG 1)”, the “apparent KD of MS2 coat protein” value (input ligand: FMN 200 uM) worked out at 18.4 nM, the “apparent KD of MS2 coat protein” value under setting [1] was found to be 9.06 nM and the “apparent KD of MS2 coat protein” value (input ligand: none) was found to be 16.4 nM.

For “UUAAUGAUUGUGAGGAUAUCGGAUAGAUAGAUAUUUGAGAAGGUACAUGAGGAUCACCCAUGUGUGAUUAGAGA [Brourd's EX4 #67] (Eterna round: R97, puzzle: Brourd's mod of Exclusion 4)”, the “apparent KD of MS2 coat protein” value worked out at 155 nM (input ligand: FMN 200 uM) and 111 nM (input ligand: none).

On to “UUAAUGUGAGGAUAUCAGGUGUGCUAGAGAACUGGUACAUCUGAGAAGGCACAUGAGGAUCACCCAUGUUCUUC [Mat - Exclusion 4 - Mod of JL - D55] (puzzle: Exclusion 4)”, for which the “apparent KD of MS2 coat protein” value under setting [2] came to 36.8 nM.

Regarding “UUAAUGUGAGGAUAUCAGGUGUGCUAGAGUACUGGUACAUCUGAGAAGGCACAUGAGGAUCACCCAUGUUCUUC [Mat - Exclusion 4 - Mod of JL - D54] (puzzle: Exclusion 4)”, the “apparent KD of MS2 coat protein” value under setting [2] worked out at 34.3 nM.

As for “UUAAUUAAUUAUAUAAGAUCACAUGAGGAUCACCCAUGUAUAUAGGAUAUCAGCUCGAUUAGAGCUGAGAAGGAUAUACAAUAU [ExNG3/3-B1] (Eterna round: R96, puzzle: Exclusion NG 3)”, the “apparent KD of MS2 coat protein” value (input ligand: FMN 200 uM) was found to be 172 nM, the “apparent KD of MS2 coat protein” value under setting [1] is 138 nM and the “apparent KD of MS2 coat protein” value (input ligand: none) is 147 nM.

Turning to “UUAAUUACGGUGCUUUAACCUCACAUGAGGAUCACCCAUGUGCAGGAUAUCAGCUCGUUUAGAGCUGAGAAGGGCACUGCACCG [ExNG3/11-A2] (Eterna round: R96, puzzle: Exclusion NG 3)”, the “apparent KD of MS2 coat protein” value (input ligand: FMN 200 uM) turned out to be 13.9 nM, the “apparent KD of MS2 coat protein” value under setting [1] turned out to be 8.87 nM and the “apparent KD of MS2 coat protein” value (input ligand: none) came to 13.5 nM.

Consider “UUAAUUCUGAUUCUUGAAAUACAUGAGGAUCACCCAUGUUCACAGGAUAUUGAUUAUGGUAGUAACAAGAAGGGUGUAUCAUAU [JR_ExcNG3_Sub039] (Eterna round: R96, puzzle: Exclusion NG 3)”, for which the “apparent KD of MS2 coat protein” value under setting [1] is 64.8 nM.

In the case of “UUAGAAAUGUUAGGAUAUUAAUAUUUUUUUAGUAUGAUCUACAUGAGGAUCACCCAUGUUAAUAUUAAGAAGGAACAUUUUAUU [JR_ExcNG2_Sub099] (Eterna round: R96, puzzle: Exclusion NG 2)”, under setting [1], the “apparent KD of MS2 coat protein” value was found to be 71.5 nM.

On to “UUAGAAUUGUUAGGAUAUUAAUUAUUUUUUAGUAUGAUCUACAUGAGGAUCACCCAUGUUAAAUAUAAGAAGGAACGUUUUAUU [JR_ExcNG2_Sub097] (Eterna round: R96, puzzle: Exclusion NG 2)”, for which the “apparent KD of MS2 coat protein” value under setting [1] is 40.7 nM.

With “UUAUACGUUGAGGAUAUGCGAAUUAGUAUAGUUGCAGAAGGCGAUACAUGAGGAUCACCCAUGUUCAUGGGCAU [LRO-Ex6-05] (puzzle: Exclusion 6)”, the “apparent KD of MS2 coat protein” value under setting [2] was found to be 135 nM.

On to “UUAUGAGAGCAGGAUAUCUUAUAUUUUUUUUAAAGAGAAGGGCUCACAUGAGGAUCACCCAUGUGGUCCUAGAU [LRO-Excl6-21-mod of 4.86 by jal] (Eterna round: R97, puzzle: Exclusion 6)”, for which the “apparent KD of MS2 coat protein” value (input ligand: FMN 200 uM) was found to be 234 nM and the “apparent KD of MS2 coat protein” value (input ligand: none) turned out to be 36.8 nM.

On to “UUAUUAUAUGUAGGAUAUGCAUAUUGUUGUUAUGCAGAAGGACAUGAGGAUCACCCAUGUAUAUUAUUGUUAUAUAUUAUAUAU [Title] (Eterna round: R96, puzzle: Exclusion NG 1)”, for which the “apparent KD of MS2 coat protein” value under setting [1] was 20.1 nM.

For the sequence “UUAUUGUAUGUAGGAUAUGCGUAUUAUUGUUAUGCAGAAGGACAUGAGGAUCACCCAUGUAUAUUAUUGUUAUAUAUUAUAUAU [Title] (Eterna round: R96, puzzle: Exclusion NG 1)”, the “apparent KD of MS2 coat protein” value was determined as 60.9 nM (input ligand: FMN 200 uM), 22.7 nM under setting [1] and 26.7 nM (input ligand: none).

Turning to “UUCACAUGGACAUAAGAUCACAUGAGGAUCACCCAUGUGAAUAACAAGCUUUUUGCUCGUCUUAUGUCCAAUAAUAU [Stov1/14-A3] (Eterna round: R97, puzzle: Sensor, turn-off variant 1)”, the “apparent KD of MS2 coat protein” value (input ligand: FMN 200 uM) was found to be 13.2 nM and the “apparent KD of MS2 coat protein” value (input ligand: none) was determined as 13.2 nM.

For “UUCAGACAUGAGGAUCACCCAUGUGAGGAUAUGAUGCAGCAGUGGUCUACGCUGUGCAUCAGAAGGCACAUGUG (puzzle: Exclusion 1)”, under setting [2], the “apparent KD of MS2 coat protein” value was determined as 99.6 nM.

With “UUCAUGUAAGGAUAUACCUCGAGCUGAUGAGAGUCUCAAAUGUAGAAGGUACAUGAGGAUCACCCAUGUACAGG [Eternabot (Original) Solution 5] (Eterna round: R97, puzzle: Exclusion 4)”, the “apparent KD of MS2 coat protein” value reads like this: (input ligand: FMN 200 uM) 65.2 nM; (input ligand: none) 42 nM.

Consider “UUCAUGUGAGGAUAUGUGAUCUGCUUUCUGUGUAGAUGAUCACAGAAGGCACAUGAGGAUCACCCAUGUAGAUC [Ex4 - 3 - 29] (puzzle: Exclusion 4)”, for which the “apparent KD of MS2 coat protein” value under setting [2] came to 77.3 nM.

In the case of “UUCCUCAUAACAUGAGGAUCACCCAUGUAUUAAUAGAUAACUGAGGAUAUACUAAUAAUGUUUAUGUAGAAGGCAGAUACAGAU [JR_ExcNG3_Sub014] (Eterna round: R96, puzzle: Exclusion NG 3)”, the “apparent KD of MS2 coat protein” value under setting [1] is 40 nM.

As for “UUCCUGUCAGGAUAUGACUAGAUGCACGAAAGUGUUUUUAGUUAGAAGGGACAUGAGGAUCACCCAUGUAGUCC [Bring Us a Shrubbery-19] (puzzle: Exclusion 4)”, the “apparent KD of MS2 coat protein” value under setting [2] was 21.9 nM.

For “UUCGUGCAGCUUUGCUGUACGCGUACAUGAGGAUCACCCAUGUAGGAUAUGGUAGGCUUUGCUUACUAGAAGGAUAGAGUGAUC [JL EXNG3 1.29] (Eterna round: R96, puzzle: Exclusion NG 3)”, the “apparent KD of MS2 coat protein” value is, setting by setting: (input ligand: FMN 200 uM) 80.7 nM; under setting [1], 67.8 nM; (input ligand: none) 95.7 nM.

With “UUCGUGUAAGGAUAUACGACCCAUCCCAUUGGGAUGGGCACGUAGAAGGUACAUGAGGAUCACCCAUGUGCUCC [Ceacequa] (Eterna round: R96, puzzle: Exclusion 4)”, the “apparent KD of MS2 coat protein” value by setting is: (input ligand: FMN 200 uM) 298 nM; under setting [1], 34.4 nM; (input ligand: none) 41.4 nM.

In the case of “UUCUAUUCAGGAUAUACAUGAGGAUCACCCAUGUGAUUUGCCUCGCGGAAGACUAGACGUAGAAGGGAGUCCCU [Eternabot (L2) Solution 7] (Eterna round: R97, puzzle: Exclusion 3)”, the “apparent KD of MS2 coat protein” value stood at 91.3 nM (input ligand: FMN 200 uM) and 111 nM (input ligand: none).

With “UUCUCGUCAGGAUAUUUGUUGUUGUUGGAAACGGCGGCGGCGGAGAAGGGACAUGAGGAUCACCCAUGUCUGGU [-27.7, -24.8 kcal, 20% A] (Eterna round: R97, puzzle: Exclusion 4)”, the “apparent KD of MS2 coat protein” value runs as follows: (input ligand: FMN 200 uM) 28.5 nM; (input ligand: none) 21.2 nM.

Take “UUGAAGUCGUCAGGAUAUAGUUUUAAUGUCAUGCGUAUGUUCUUACAUGAGGAUCACCCAUGUCGCUAGAAGGGACUAAAGAUU [JR_ExcNG2_Sub010] (Eterna round: R96, puzzle: Exclusion NG 2)”: the “apparent KD of MS2 coat protein” value is, setting by setting: (input ligand: FMN 200 uM) 43.9 nM; under setting [1], 33.4 nM; (input ligand: none) 44.4 nM.

“UUGAUUCAUUCCUCCAUAAACAUGAGGAUCACCCAUGUAAGUGAGGAUAUAGUUGGAGUAGUAUACUAGAAGGCACUUAGAUAU [JR_ExcNG3_Sub047] (Eterna round: R96, puzzle: Exclusion NG 3)”: under setting [1], the “apparent KD of MS2 coat protein” value was determined as 8.77 nM.

As for “UUGCAGUCGUCAGGAUAUAGUAUUACGGCCUUUCAUUUCUUCAUACAUGAGGAUCACCCAUGUCGCUAGAAGGGCUUAUCGCUU [salish99_ExNG2_r04_108] (Eterna round: R96, puzzle: Exclusion NG 2)”, the “apparent KD of MS2 coat protein” value under setting [1] stood at 11.1 nM.

For the sequence “UUGUAAUGAUUAGGAUAUUAUUAAUAGAACUUUAUGAUAUACAUGAGGAUCACCCAUGUUACUUAUAAGAAGGAAUCGUAUUAU [JR_ExcNG2_Sub092] (Eterna round: R96, puzzle: Exclusion NG 2)”, under setting [1], the “apparent KD of MS2 coat protein” value was 15.7 nM.

Turning to “UUGUGCACGCUGCGGUCCUACAUGAGGAUCACCCAUGUGGUCUGGUGGCGUGGGUCGCCGGACUUGGCUCGUCUUGA [salish99_S_TOV1_R5_027] (Eterna round: R97, puzzle: Sensor, turn-off variant 1)”, the “apparent KD of MS2 coat protein” value came to 18.4 nM (input ligand: FMN 200 uM) and 18.8 nM (input ligand: none).

For the sequence “UUGUUACAUGAGGAUCACCCAUGUGAGGAUAUGGCCCGCCCGGCGUGAGCUGGUUUUGUCAGAAGGCGCAUAGG [salish99_ex1_r4_024] (Eterna round: R97, puzzle: Exclusion 1)”, the “apparent KD of MS2 coat protein” value is, setting by setting: (input ligand: FMN 200 uM) 79.6 nM; (input ligand: none) 54.2 nM.
